Where a chain is given by its changes, count along the chain named. “Also recorded” adds a separate entry of the source.
T1: human CCR7 (Homo sapiens, UniProt P32248)
T1 construct: CCR7 contains a 24-residue long signal peptide cleaved of from the mature protein; expressed in transfected cells; host or cells: CHO cells (CHO-K1, CHO suspension WT, GAG-deficient and 5xKO GalNAc-T knockout lines), transient transfection
T1 sequence (P32248 25-378): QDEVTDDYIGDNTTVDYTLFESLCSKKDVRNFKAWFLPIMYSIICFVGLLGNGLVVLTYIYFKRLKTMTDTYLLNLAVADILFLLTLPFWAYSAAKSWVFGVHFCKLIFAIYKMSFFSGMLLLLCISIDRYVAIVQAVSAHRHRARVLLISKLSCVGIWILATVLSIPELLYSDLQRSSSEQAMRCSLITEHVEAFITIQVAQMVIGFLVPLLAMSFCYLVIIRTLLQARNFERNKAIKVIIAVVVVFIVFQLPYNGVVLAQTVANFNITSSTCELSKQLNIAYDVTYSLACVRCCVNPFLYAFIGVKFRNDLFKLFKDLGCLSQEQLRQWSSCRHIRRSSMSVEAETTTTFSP

T2: CCR7^−O (CCR7 T37/38/42A) (Homo sapiens, UniProt P32248, T37A/T38A/T42A)
T2 construct: CCR7 contains a 24-residue long signal peptide cleaved of from the mature protein; expressed in transfected cells; host or cells: CHO cells, transient transfection
T2 sequence (P32248 25-378 T37A/T38A/T42A): T1 sequence (P32248 25-378) with T13A, T14A, T18A

B1: CCL21: full-length chemokine (residues 1–111), CCR7 ligand, from R&D Systems (protein, UniProt O00585 24-134, looked up)
C-C motif chemokine 21: SDGGAQDCCLKYSQRKIPAKVVRSYRKQEPSLGCSIPAILFLPRKRSQAELCADPKELWVQQLMQHLDKTPSPQKPAQGCRKDRGASKTGKKGKGSKGCKRTERSQTPKGP

What was measured:
[1] = target: T1, human CCR7; assay: Gαi signaling, BRET-based cAMP (CAMYEL) assay at CCR7 in CHO cells; format: cell-based; settings: for effect of C21TP on CCL21^Tailless activity (Gαi signaling): CCL21^Tailless (CCL21 1–79) + 10 µM TP71-111, n = 4
Description: Human DCs were cultured in X-vivo 15 medium with 2% human AB serum and glutamine. CHO-K1 pgsB-618 ATCC® CRL2241™ [24] and CHO-K1 cells were grown in RPMI with 10% FBS and Penicillin/Streptomycin. HS^−/− (CHO EXTL 2/3 −/−), CS^−/− (CSGALNACT 1/2^−/− CHSY1^−/−), 5xKO (GalNAc-T1, 2, 4, 7 and 10 −/−) and WT CHO suspension cells were grown in suspension in 1:1 of EX-Cell CD CHO fusion media and Balanced CD CHO growth A medium supplemented with 2% glutamine and Penicillin/Streptomycin. Cells were kept in a humidified incubator at 37 °C, 5% CO2.
(§1) For cAMP assays, adherent CHO cells were transfected using lipofectamine while suspension cells were transfected using the FectoPro method. Cells were seeded in a 6-well plate, either 500,000 (adherent cells) or 200,000 (suspension cells) cells/well. The next day the cells were transiently transfected with vectors encoding the human CCR7 and CAMYEL sensor (cAMP sensor using YFP-Epac-RLuc) in a 1:5 ratio using lipofectamine (6 µl/well) or FectoPro (4 µl/well). Lipofectamine transfections were terminated by changing to 2 ml fresh cultivation medium after 5 h, while Fectopro transfection was terminated after 3 h by adding 2.5 ml fresh cultivation medium and 2 µl FectoPro Boost reagent per well. The cells were incubated under standard cultivation conditions overnight. For β-arrestin recruitment assays, cells were transfected with CCR7 and vectors expressing a Renilla luciferase arrestin3 fusion protein and membrane-SH3-citrine protein. The cells were then resuspended in PBS w/glucose and seeded in 96-well white iso plates (~ 25,000 cells/well). Coelenterazine (bioluminescence substrate) was added to a final conc. of 5 µM. After 10 min, cells were stimulated with varying ligand concentrations for a total of 40 min. Forskolin was added to each well 5 min after ligand addition to reach a final conc. of 5 µM. The plates were kept in the dark at all times. Emission signal from Rluc and eYFP was measured using the Envision machine at 530 and 480 nm and the BRET signal determined as the ratio between (eYFP/Rluc).

[2] = target: T2, CCR7^−O (CCR7 T37/38/42A); assay: Gαi signaling, BRET cAMP assay, CCR7 lacking N-terminal O-glycosylation sites; format: cell-based
Description: O-glycosylation deficient CCR7 was generated from WT through Quick change PCR using the following primers: […]
as §1

[3] = system: CCR7-N (CCR7 N36/292A); assay: Gαi signaling, BRET cAMP assay, CCR7 lacking N-glycosylation sites; format: cell-based, human; settings: CCL21 alone or CCL21 + 10 µM TP71-111, CHO cells, n = 3
Description: For cAMP assays, adherent CHO cells were transfected using lipofectamine while suspension cells were transfected using the FectoPro method. Cells were seeded in a 6-well plate, either 500,000 (adherent cells) or 200,000 (suspension cells) cells/well. The next day the cells were transiently transfected with vectors encoding the human CCR7 and CAMYEL sensor (cAMP sensor using YFP-Epac-RLuc) in a 1:5 ratio using lipofectamine (6 µl/well) or FectoPro (4 µl/well). Lipofectamine transfections were terminated by changing to 2 ml fresh cultivation medium after 5 h, while Fectopro transfection was terminated after 3 h by adding 2.5 ml fresh cultivation medium and 2 µl FectoPro Boost reagent per well. The cells were incubated under standard cultivation conditions overnight. […] Emission signal from Rluc and eYFP was measured using the Envision machine at 530 and 480 nm and the BRET signal determined as the ratio between (eYFP/Rluc).
Supplementary file 18_2021_3930_MOESM4_ESM.png: Supplementary file4 C21TP boosting ability is not dependent on N-glycosylation sites. […] Signaling was measured in CHO cells quantified using the BRET based cAMP assay. […] Statistical significance was calculated using two-way ANOVA with Tukey’s correction for multiple test. *P<0.05, **P <0.01, ***P<0.001 (PNG 328 KB)

| Molecule | fold reduction of C21TP boosting effect on CCL21 signaling in 5xKO vs WT ([1]; CCL21 + 10 µM TP71-111, CHO 5xKO vs WT) | effect of C21TP on CCL21^Tailless activity (Gαi signaling) [1] | effect of C21TP on CCL21^Tailless activity (Gαi signaling) ([1]; listed as C21TP) | boosting of CCL21-induced CCR7 signaling in GAG KO cells ([1]; CHO GAG KO (pgsB 618) vs WT, 10 µM TP71-111, n = 3) | boosting of CCL21-induced CCR7 signaling in GAG-deficient cells ([1]; CHO HS−/−, CS−/− and GAG KO (pgsB 618) cells, 10 µM TP71-111, n = 3) | boosting of CCL19-induced CCR7 signaling in GAG-deficient cells ([1]; CHO HS−/−, CS−/−, GAG KO cells, 10 µM TP71-111, n = 3, listed as C21TP) | fold boost of CCL21 signaling activity via CCR7 ([1]; in the presence of C21TP) | boosting of CCL19 signaling by C21TP at CCR7^−O ([2]; CCL19 + 10 µM TP71-111, CCR7^−O vs WT CCR7) | effect of removing extracellular N-glycosylation sites on signaling or boosting (CCR7-N) [3] | pEC50, Gαi signaling, chemokine alone ([1]; no peptide, CHO cells, forskolin 5 µM, n = 4) | chemokine activity on its own at CCR7^−O ([2]; no peptide, CCR7^−O vs WT CCR7) |
| --- | --- | --- | --- | --- | --- | --- | --- | --- | --- | --- | --- |
| TP71-111: free CCL21 C-terminal peptide, residues 71–111 (41 amino acids, positively charged) (PSPQKPAQGCRKDRGASKTGKKGKGSKGCKRTERSQTPKGP; UniProt O00585 94-134, looked up, fragment) | 25 fold | not improved | did not affect CCL21^Tailless potency | tendency that boosting by C21TP (TP71-111) was increased | In none of the GAG-deficient cells did we measure any decrease | similarly unaffected by the lack of GAGs; also recorded: independent of cell GAG status | ~ 100 fold | diminished | no effect | – | – |
| B1 | – | – | – | – | – | – | – | – | no effect | 6.46 | almost unaffected; also recorded: without affecting basal CCR7 activation via CCL19 and CCL21 |
